We go through 46 substances from US10239925B2, “Peptides and combination of peptides for use in immunotherapy against ovarian cancer and other cancers” (IMMATICS BIOTECHNOLOGIES GMBH, priority 2015, dated 2019).

The target of the test is HLA-A*02:01 (Homo sapiens, UniProt P04439, D140Y/D185E/D98H/E176V/E277Q/G131W/G231S/I119V/I121R/I166T/I218V/L300P/L318F/N151K/N90K/P208A/P217A/Q86G/Q94H/R138H/R169H/T345S). Put plainly: MHC binding assay (UV-ligand exchange, anti-β2m ELISA, peptide exchange yield). Particulars: binding to HLA-A*02:01. A digest of the protocol: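 Yield of stabilized complexes quantified via the β2m light chain in an ELISA (streptavidin capture, 100-fold diluted monomers, HRP anti-β2m 2 ug/ml at 37 °C, TMB, A450). The complexes come from UV-triggered replacement of a photocleavable ligand by the candidate peptide.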
(An ELISA detects its analyte on a solid surface through an enzyme-linked reagent.)
Consider “228 (AMQEYIAVV; listed as Homo sapiens) [compound 228]”, for which the “Peptide exchange (MHC class I binding score, peptide exchange yield)” value (shortened to “Peptide exchange”) is ““++” (>20% = ++)”.
As for “508 (ILAQEQLVVGV; listed as Homo sapiens) [compound 508]”, the “Peptide exchange” value is on record as ““+++” (>50 = +++)”.
Consider “171 (LLLPLQILL; listed as Homo sapiens) [compound 171]”, for which the “Peptide exchange” value is reported as ““+++” (>50 = +++)”.
For the substance “605 (KLYEAVPQL; listed as Homo sapiens) [compound 605]”, the “Peptide exchange” value was ““+++” (>50 = +++)”.
For the substance “50 (SLSELEALM; listed as Homo sapiens) [compound 50]”, the “Peptide exchange” value is reported as ““+++” (>50 = +++)”.
On to “471 (YLYNNMIAKI; listed as Homo sapiens) [compound 471]”, for which the “Peptide exchange” value is reported as ““+++” (>50 = +++)”.
On to “348 (ILLDVKTRL; listed as Homo sapiens) [compound 348]”, for which the “Peptide exchange” value is listed as ““++++” (>75% = ++++)”.
Regarding “277 (LLPPLESLATV; listed as Homo sapiens) [compound 277]”, the “Peptide exchange” value is recorded as ““++” (>20% = ++)”.
To “287 (FLNEFFLNV; listed as Homo sapiens) [compound 287]” belongs ““+++” (>50 = +++)”; to “15 (VLLTFKIFL; listed as Homo sapiens) [compound 15]”, ““++” (>20% = ++)”; to “379 (IMEGTLTRV; listed as Homo sapiens) [compound 379]”, ““++” (>20% = ++)”.
For the substance “408 (VLDDSIYLV; listed as Homo sapiens) [compound 408]”, the “Peptide exchange” value was ““++” (>20% = ++)”.
Turning to “620 (KLLNKIYEA; listed as Homo sapiens) [compound 620]”, the “Peptide exchange” value is on record as ““++++” (>75% = ++++)”.
As to “317 (SLAALVVHV; listed as Homo sapiens) [compound 317]”, the “Peptide exchange” value is listed as ““+++” (>50 = +++)”.
Turning to “204 (KIAENVEEV; listed as Homo sapiens) [compound 204]”, the “Peptide exchange” value is given as ““++” (>20% = ++)”.
On to “352 (SLLELLHIYV; listed as Homo sapiens) [compound 352]”, for which the “Peptide exchange” value is on record as ““+++” (>50 = +++)”.
With “207 (GLTSTNAEV; listed as Homo sapiens) [compound 207]”, the “Peptide exchange” value was ““++” (>20% = ++)”.
On to “566 (VIADGGIQNV; listed as Homo sapiens) [compound 566]”, for which the “Peptide exchange” value was ““++” (>20% = ++)”.
To “175 (YLFENISQL; listed as Homo sapiens) [compound 175]” belongs ““+++” (>50 = +++)”.
As to “281 (ILRESTEEL; listed as Homo sapiens) [compound 281]”, the “Peptide exchange” value is listed as ““+++” (>50 = +++)”.
With “298 (VMITKLVEV; listed as Homo sapiens) [compound 298]”, the “Peptide exchange” value was ““+++” (>50 = +++)”.
To “437 (SMAPGLVIQAV; listed as Homo sapiens) [compound 437]” belongs ““+++” (>50 = +++)”.
Take “353 (YLFEMDSSL; listed as Homo sapiens) [compound 353]”: the “Peptide exchange” value is ““++” (>20% = ++)”.
Regarding “586 (KLKPGDLVGV; listed as Homo sapiens) [compound 586]”, the “Peptide exchange” value is recorded as ““+++” (>50 = +++)”.
Regarding “262 (LLWGDLIWL; listed as Homo sapiens) [compound 262]”, the “Peptide exchange” value is on record as ““+++” (>50 = +++)”.
For the substance “132 (LLVEQPPLAGV; listed as Homo sapiens) [compound 132]”, the “Peptide exchange” value is ““+++” (>50 = +++)”.
The result for “299 (YLLETSGNL; listed as Homo sapiens) [compound 299]” reads ““+++” (>50 = +++)”; that for “271 (LVYPLELYPA; listed as Homo sapiens) [compound 271]”, ““+++” (>50 = +++)”.
The result for “334 (TLTKVLVAL; listed as Homo sapiens) [compound 334]” reads ““+++” (>50 = +++)”; that for “527 (FLLEPGNLEV; listed as Homo sapiens) [compound 527]”, ““++++” (>75% = ++++)”; that for “201 (RLVDYLEGI; listed as Homo sapiens) [compound 201]”, ““+++” (>50 = +++)”.
As for “363 (KVLDVSDLESV; listed as Homo sapiens) [compound 363]”, the “Peptide exchange” value is given as ““++” (>20% = ++)”.
To “195 (GLFADLLPRL; listed as Homo sapiens) [compound 195]” belongs ““+++” (>50 = +++)”; to “153 (FLIANVLYL; listed as Homo sapiens) [compound 153]”, ““+” (>10% = +)”; to “87 (ALPEAPAPLLPHIT; listed as Homo sapiens) [compound 87]”, ““++” (>20% = ++)”.
Turning to “26 (ALLELAEEL; listed as Homo sapiens) [compound 26]”, the “Peptide exchange” value is on record as ““+++” (>50 = +++)”.
To “563 (WLLPYNGVTV; listed as Homo sapiens) [compound 563]” belongs ““+++” (>50 = +++)”.
For “128 (YLFDDPLSAV; listed as Homo sapiens) [compound 128]”, the “Peptide exchange” value was ““++” (>20% = ++)”.
The result for “16 (VLFQGQASL; listed as Homo sapiens) [compound 16]” reads ““+++” (>50 = +++)”; that for “505 (SLAPGDVVRQV; listed as Homo sapiens) [compound 505]”, ““++” (>20% = ++)”; that for “432 (TLIEESAKV; listed as Homo sapiens) [compound 432]”, ““++” (>20% = ++)”.
In the case of “587 (VMNDRLYAI; listed as Homo sapiens) [compound 587]”, the “Peptide exchange” value is ““+++” (>50 = +++)”.
To “301 (FLVEDLVDSL; listed as Homo sapiens) [compound 301]” belongs ““+++” (>50 = +++)”.
As for “487 (LLINSVFHV; listed as Homo sapiens) [compound 487]”, the “Peptide exchange” value is reported as ““+++” (>50 = +++)”.
Take “80 (FLYDNLVESL; listed as Homo sapiens) [compound 80]”: the “Peptide exchange” value is ““++” (>20% = ++)”.
For the substance “543 (GLLPTPITQQASL; listed as Homo sapiens) [compound 543]”, the “Peptide exchange” value is reported as ““+++” (>50 = +++)”.
